Experimental data reported in patent US20260184748A1 (University of Pennsylvania, published 2026).
Where no end group is shown, it is not given here. [ ]: non-standard residue; d: D form.

T1: FPR1 (UniProt P21462 1-350)
T1 sequence (looked up): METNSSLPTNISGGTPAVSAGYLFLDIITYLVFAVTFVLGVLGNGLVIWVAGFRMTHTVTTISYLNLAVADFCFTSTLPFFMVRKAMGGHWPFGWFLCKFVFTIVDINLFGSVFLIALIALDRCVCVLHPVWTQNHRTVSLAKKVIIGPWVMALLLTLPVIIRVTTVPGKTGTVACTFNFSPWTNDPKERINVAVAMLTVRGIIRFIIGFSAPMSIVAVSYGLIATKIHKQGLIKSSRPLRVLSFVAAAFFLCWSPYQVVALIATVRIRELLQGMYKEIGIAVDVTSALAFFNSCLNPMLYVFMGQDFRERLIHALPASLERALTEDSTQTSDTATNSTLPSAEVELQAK

T2: FPRL1 (UniProt P25090 1-351)
T2 sequence (looked up): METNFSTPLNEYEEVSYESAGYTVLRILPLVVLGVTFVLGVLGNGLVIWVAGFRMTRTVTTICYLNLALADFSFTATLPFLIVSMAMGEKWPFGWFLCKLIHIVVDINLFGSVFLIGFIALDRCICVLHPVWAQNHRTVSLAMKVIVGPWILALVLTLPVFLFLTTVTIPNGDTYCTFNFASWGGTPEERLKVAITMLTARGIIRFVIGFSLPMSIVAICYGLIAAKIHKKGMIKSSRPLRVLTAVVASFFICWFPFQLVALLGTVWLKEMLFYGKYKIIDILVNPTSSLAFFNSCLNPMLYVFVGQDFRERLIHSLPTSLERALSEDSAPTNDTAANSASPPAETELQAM


Legend:
Assay in all cases: cell-based or functional assay
[1] = target: T1, FPR1
[2] = target: T2, FPRL1
[3] = target: F2RL1 (UniProt P55085 26-397, limits assumed)

Row | Binder | EC80, arrestin, agonist mode [1] [nM] | EC80, arrestin, agonist mode [2] [nM] | EC50 (RC50), arrestin, agonist mode [3] [nM] | EC80, arrestin, agonist mode [3] [nM]
1 | WKYMV[dM]-NH2 [WKYMVm-NH2] | 25.2 | 11.8 |  | 
2 | SLIGRL-NH2 [SLIGRL-NH2] |  |  | 552 | 2130
